For this assay, the target named is Fc3(1) (human) (UniProt P01860). Description: Biacore 2000 SPR, Fc3(1) immobilized on CM5 chip, 25 C, HBS. On the technique in general: Surface plasmon resonance follows binding to a sensor surface in real time, without labels.

pKd: −log10 of the molar value.

This is an account of results in patent publication US20040077017A1.

In the case of “unlabeled, wild-type Z-ABD (from UniProt P19909 254-299) (designed binder)”, the pKd (in general, −log10 of the Kd, conventionally taken in molar units) is 7.05.
